Target: T1, cMet-Fc fusion protein (extracellular domain of the cMet receptor expressed as an Fc-fusion protein) (human, UniProt P08581 25-932)
T1 construct: extracellular domain; also called soluble cMet-Fc-fusion protein; soluble cMet receptor; not shown: Fc part
Assay: phage ELISA, cMet-Fc vs TRAIL-Fc
Method in brief: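 Specificity check: phage displaying peptides incubated 2 h at room temperature on wells coated with 0.5 μg/mL cMet-Fc versus TRAIL-Fc, after blocking with 3% BSA/PBST. HRP-anti-M13 antibody detected binding phage.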

T1 sequence (P08581 25-932): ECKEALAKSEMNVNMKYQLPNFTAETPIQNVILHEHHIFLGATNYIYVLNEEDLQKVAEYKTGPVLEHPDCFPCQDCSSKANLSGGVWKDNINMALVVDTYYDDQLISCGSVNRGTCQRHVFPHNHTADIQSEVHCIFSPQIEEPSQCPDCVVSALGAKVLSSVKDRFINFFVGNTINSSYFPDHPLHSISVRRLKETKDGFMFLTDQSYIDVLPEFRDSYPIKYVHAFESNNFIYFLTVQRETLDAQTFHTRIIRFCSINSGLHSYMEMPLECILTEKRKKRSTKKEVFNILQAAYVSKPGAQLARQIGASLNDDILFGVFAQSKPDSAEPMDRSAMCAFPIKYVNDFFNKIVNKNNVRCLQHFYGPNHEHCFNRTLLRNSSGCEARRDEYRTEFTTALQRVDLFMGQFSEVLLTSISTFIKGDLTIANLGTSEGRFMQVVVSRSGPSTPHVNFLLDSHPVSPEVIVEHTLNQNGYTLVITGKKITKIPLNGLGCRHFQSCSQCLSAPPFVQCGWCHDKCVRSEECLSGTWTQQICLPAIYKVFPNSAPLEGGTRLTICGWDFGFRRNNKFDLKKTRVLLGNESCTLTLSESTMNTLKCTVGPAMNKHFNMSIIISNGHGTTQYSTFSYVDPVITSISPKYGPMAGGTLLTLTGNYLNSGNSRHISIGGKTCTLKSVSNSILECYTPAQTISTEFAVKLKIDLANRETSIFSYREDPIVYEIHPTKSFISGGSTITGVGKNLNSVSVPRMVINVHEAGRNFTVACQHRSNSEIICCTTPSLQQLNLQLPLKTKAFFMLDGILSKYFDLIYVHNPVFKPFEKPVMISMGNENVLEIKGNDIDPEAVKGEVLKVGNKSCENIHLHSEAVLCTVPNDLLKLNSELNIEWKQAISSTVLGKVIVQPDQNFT

Row | Binder | Protein ELISA (fold over background) [fold]
1 | GSDMNCTVLAQDQIFCFREAP [451-C06 peptide-displaying phage (SEQ ID NO: 386)] | 3
2 | GSAGWCYTMNYVDQLCTYMAP [445-E11 peptide-displaying phage (SEQ ID NO: 387)] | 3.7
3 | GDYDYCDFDLETYIPECHSYDP [546-G02 peptide-displaying phage (SEQ ID NO: 390)] | 16.1
4 | AGNWICNLSEMRCYPKGT [456-E04 peptide-displaying phage (SEQ ID NO: 013)] | 3.9
5 | GDDFHCEFIDDYQSEICYFNDP [333-C03 peptide-displaying phage (SEQ ID NO: 391)] | 12.4
6 | GDLLVCKFDDKFWTETCEWADP [549-G05 peptide-displaying phage (SEQ ID NO: 392)] | 23.7
7 | GDSYNCSWDSKTFEVTCLYADP [546-B01 peptide-displaying phage (SEQ ID NO: 393)] | 8.4
8 | GDASWCDENSPAAWFYCELWDP [551-D02 peptide-displaying phage (SEQ ID NO: 394)] | 13.4
9 | GDLLGCGYQEKGGEYKCRFNDP [334-F05 peptide-displaying phage (SEQ ID NO: 395)] | 13.5
10 | GDPWWCFEKDSFIPFACWHHDP [330-G02 peptide-displaying phage (SEQ ID NO: 396)] | 7.4
11 | GDYYQCQFSKDMYSERCWPYDP [316-F08 peptide-displaying phage (SEQ ID NO: 397)] | 7
12 | GDNRFCSWVYNVDDWWCVDNDP [332-H09 peptide-displaying phage (SEQ ID NO: 398)] | 6.2
13 | GDYSECFFEPDSFEVKCYDRDP [545-H12 peptide-displaying phage (SEQ ID NO: 399)] | 11.3
14 | GDYRMCQISDMWGNYECSSDDP [548-G05 peptide-displaying phage (SEQ ID NO: 400)] | 6.1
15 | AGDGWCMAWPEICEWLGT [434-E12 peptide-displaying phage (SEQ ID NO: 014)] | 4.8
16 | GDPDECQLNRETFEVWCPWHDP [547-C09 peptide-displaying phage (SEQ ID NO: 401)] | 4.3

Target: T1, cMet-Fc fusion protein (extracellular …)
Assay: phage ELISA on cMet-Fc, competitor HGF 500 ng/mL
Method in brief: (§1)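 Plates coated with 0.5 μg/mL cMet-Fc, with TRAIL-Fc as background, then blocked with 3% BSA. Bound phage detected with HRP anti-M13 antibody.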

Row | Binder | % of binding in the absence of HGF [%]
17 | GSDMNCTVLAQDQIFCFREAP [451-C06 peptide-displaying phage (SEQ ID NO: 386)] | 86
18 | GSAGWCYTMNYVDQLCTYMAP [445-E11 peptide-displaying phage (SEQ ID NO: 387)] | 79
19 | GDYDYCDFDLETYIPECHSYDP [546-G02 peptide-displaying phage (SEQ ID NO: 390)] | 19
20 | AGNWICNLSEMRCYPKGT [456-E04 peptide-displaying phage (SEQ ID NO: 013)] | 81
21 | GDDFHCEFIDDYQSEICYFNDP [333-C03 peptide-displaying phage (SEQ ID NO: 391)] | 43
22 | GDLLVCKFDDKFWTETCEWADP [549-G05 peptide-displaying phage (SEQ ID NO: 392)] | 21
23 | GDSYNCSWDSKTFEVTCLYADP [546-B01 peptide-displaying phage (SEQ ID NO: 393)] | 77
24 | GDASWCDENSPAAWFYCELWDP [551-D02 peptide-displaying phage (SEQ ID NO: 394)] | 70
25 | GDLLGCGYQEKGGEYKCRFNDP [334-F05 peptide-displaying phage (SEQ ID NO: 395)] | 29
26 | GDPWWCFEKDSFIPFACWHHDP [330-G02 peptide-displaying phage (SEQ ID NO: 396)] | 31
27 | GDYYQCQFSKDMYSERCWPYDP [316-F08 peptide-displaying phage (SEQ ID NO: 397)] | 38
28 | GDNRFCSWVYNVDDWWCVDNDP [332-H09 peptide-displaying phage (SEQ ID NO: 398)] | 43
29 | GDYSECFFEPDSFEVKCYDRDP [545-H12 peptide-displaying phage (SEQ ID NO: 399)] | 60
30 | GDYRMCQISDMWGNYECSSDDP [548-G05 peptide-displaying phage (SEQ ID NO: 400)] | 47
31 | AGDGWCMAWPEICEWLGT [434-E12 peptide-displaying phage (SEQ ID NO: 014)] | 41
32 | GDPDECQLNRETFEVWCPWHDP [547-C09 peptide-displaying phage (SEQ ID NO: 401)] | 32

Target: T1, cMet-Fc fusion protein (extracellular …)
Assay: phage ELISA on cMet-Fc, competitor HGF 100 ng/mL
Method in brief: as §1

Row | Binder | % of binding in the absence of HGF [%]
33 | GSDMNCTVLAQDQIFCFREAP [451-C06 peptide-displaying phage (SEQ ID NO: 386)] | 108
34 | GSAGWCYTMNYVDQLCTYMAP [445-E11 peptide-displaying phage (SEQ ID NO: 387)] | 69
35 | GDYDYCDFDLETYIPECHSYDP [546-G02 peptide-displaying phage (SEQ ID NO: 390)] | 32
36 | AGNWICNLSEMRCYPKGT [456-E04 peptide-displaying phage (SEQ ID NO: 013)] | 82
37 | GDDFHCEFIDDYQSEICYFNDP [333-C03 peptide-displaying phage (SEQ ID NO: 391)] | 52
38 | GDLLVCKFDDKFWTETCEWADP [549-G05 peptide-displaying phage (SEQ ID NO: 392)] | 28
39 | GDSYNCSWDSKTFEVTCLYADP [546-B01 peptide-displaying phage (SEQ ID NO: 393)] | 95
40 | GDASWCDENSPAAWFYCELWDP [551-D02 peptide-displaying phage (SEQ ID NO: 394)] | 91
41 | GDLLGCGYQEKGGEYKCRFNDP [334-F05 peptide-displaying phage (SEQ ID NO: 395)] | 58
42 | GDPWWCFEKDSFIPFACWHHDP [330-G02 peptide-displaying phage (SEQ ID NO: 396)] | 37
43 | GDYYQCQFSKDMYSERCWPYDP [316-F08 peptide-displaying phage (SEQ ID NO: 397)] | 72
44 | GDNRFCSWVYNVDDWWCVDNDP [332-H09 peptide-displaying phage (SEQ ID NO: 398)] | 50
45 | GDYSECFFEPDSFEVKCYDRDP [545-H12 peptide-displaying phage (SEQ ID NO: 399)] | 74
46 | GDYRMCQISDMWGNYECSSDDP [548-G05 peptide-displaying phage (SEQ ID NO: 400)] | 110
47 | AGDGWCMAWPEICEWLGT [434-E12 peptide-displaying phage (SEQ ID NO: 014)] | 117
48 | GDPDECQLNRETFEVWCPWHDP [547-C09 peptide-displaying phage (SEQ ID NO: 401)] | 50

Target: T2, human cMet expressed on 3T3 cells (human, UniProt P08581 25-1390)
T2 construct: whole, on cells; cells fixed with glutaraldehyde; also called cell surface-expressed human cMet; 3T3 cells that over-express human cMet
T2 sequence (P08581 25-1390): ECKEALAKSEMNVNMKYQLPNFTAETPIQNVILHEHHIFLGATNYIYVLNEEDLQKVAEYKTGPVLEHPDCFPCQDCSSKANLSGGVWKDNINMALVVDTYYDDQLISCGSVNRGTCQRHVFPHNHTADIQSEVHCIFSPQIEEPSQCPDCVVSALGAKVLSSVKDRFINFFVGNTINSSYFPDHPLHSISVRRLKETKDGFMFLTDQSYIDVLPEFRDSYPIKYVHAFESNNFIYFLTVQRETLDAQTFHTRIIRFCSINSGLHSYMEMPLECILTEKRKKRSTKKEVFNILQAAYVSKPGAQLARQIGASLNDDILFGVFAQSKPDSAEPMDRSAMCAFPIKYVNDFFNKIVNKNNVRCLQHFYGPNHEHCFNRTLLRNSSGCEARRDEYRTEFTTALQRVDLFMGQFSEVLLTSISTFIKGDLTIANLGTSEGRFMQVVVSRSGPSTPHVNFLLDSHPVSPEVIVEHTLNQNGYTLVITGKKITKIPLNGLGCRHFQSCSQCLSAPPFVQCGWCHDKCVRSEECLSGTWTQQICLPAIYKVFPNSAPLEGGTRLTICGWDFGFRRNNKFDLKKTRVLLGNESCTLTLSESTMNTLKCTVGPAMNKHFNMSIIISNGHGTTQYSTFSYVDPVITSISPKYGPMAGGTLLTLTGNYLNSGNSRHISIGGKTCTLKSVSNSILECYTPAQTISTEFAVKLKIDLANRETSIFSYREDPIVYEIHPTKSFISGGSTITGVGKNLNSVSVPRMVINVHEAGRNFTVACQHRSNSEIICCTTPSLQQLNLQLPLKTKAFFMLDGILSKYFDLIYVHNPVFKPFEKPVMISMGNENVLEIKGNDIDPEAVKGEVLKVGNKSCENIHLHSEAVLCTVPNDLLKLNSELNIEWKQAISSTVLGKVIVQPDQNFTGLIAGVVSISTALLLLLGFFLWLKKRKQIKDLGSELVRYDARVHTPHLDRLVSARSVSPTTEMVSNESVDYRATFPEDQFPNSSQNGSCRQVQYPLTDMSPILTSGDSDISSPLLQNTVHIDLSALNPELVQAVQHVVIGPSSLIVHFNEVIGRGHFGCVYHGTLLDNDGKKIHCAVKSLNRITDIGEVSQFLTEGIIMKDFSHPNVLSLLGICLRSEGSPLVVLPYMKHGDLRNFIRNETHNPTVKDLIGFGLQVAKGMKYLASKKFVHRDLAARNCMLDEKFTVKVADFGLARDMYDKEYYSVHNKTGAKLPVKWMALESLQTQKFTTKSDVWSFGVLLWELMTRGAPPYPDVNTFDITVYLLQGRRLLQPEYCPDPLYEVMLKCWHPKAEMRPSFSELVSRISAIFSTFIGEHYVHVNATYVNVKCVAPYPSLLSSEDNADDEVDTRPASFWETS
Assay: whole cell phage ELISA, 3T3 human cMet vs 3T3
Method in brief: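 Bound phage was detected with an HRP-conjugated anti-M13 antibody after PBST washes. The cells were cMet-over-expressing 3T3, read against plain 3T3.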

Row | Binder | WC ELISA (fold over background) [fold]
49 | GSDMNCTVLAQDQIFCFREAP [451-C06 peptide-displaying phage (SEQ ID NO: 386)] | 1.37
50 | GSAGWCYTMNYVDQLCTYMAP [445-E11 peptide-displaying phage (SEQ ID NO: 387)] | 1.43
51 | GDYDYCDFDLETYIPECHSYDP [546-G02 peptide-displaying phage (SEQ ID NO: 390)] | 1.27
52 | AGNWICNLSEMRCYPKGT [456-E04 peptide-displaying phage (SEQ ID NO: 013)] | 1.4
53 | GDDFHCEFIDDYQSEICYFNDP [333-C03 peptide-displaying phage (SEQ ID NO: 391)] | 1.37
54 | GDLLVCKFDDKFWTETCEWADP [549-G05 peptide-displaying phage (SEQ ID NO: 392)] | 1.47
55 | GDSYNCSWDSKTFEVTCLYADP [546-B01 peptide-displaying phage (SEQ ID NO: 393)] | 1.2
56 | GDASWCDENSPAAWFYCELWDP [551-D02 peptide-displaying phage (SEQ ID NO: 394)] | 1.37
57 | GDLLGCGYQEKGGEYKCRFNDP [334-F05 peptide-displaying phage (SEQ ID NO: 395)] | 1.4
58 | GDPWWCFEKDSFIPFACWHHDP [330-G02 peptide-displaying phage (SEQ ID NO: 396)] | 1.3
59 | GDYYQCQFSKDMYSERCWPYDP [316-F08 peptide-displaying phage (SEQ ID NO: 397)] | 1.3
60 | GDNRFCSWVYNVDDWWCVDNDP [332-H09 peptide-displaying phage (SEQ ID NO: 398)] | 1.3
61 | GDYSECFFEPDSFEVKCYDRDP [545-H12 peptide-displaying phage (SEQ ID NO: 399)] | 1.3
62 | GDYRMCQISDMWGNYECSSDDP [548-G05 peptide-displaying phage (SEQ ID NO: 400)] | 1.3
63 | AGDGWCMAWPEICEWLGT [434-E12 peptide-displaying phage (SEQ ID NO: 014)] | 1.33
64 | GDPDECQLNRETFEVWCPWHDP [547-C09 peptide-displaying phage (SEQ ID NO: 401)] | 1.23
